Results on two molecules are retold here after patent US20260226147A1 (ATRECA, published 2026).

Test [1] has as its target T1, NANP6 peptide (NANPNANPNANPNANPNANPNANP) (Plasmodium falciparum, N-terminal biotin-aminohexanoic acid tag; unmodified C-terminus).
T1 construct: Synthetic peptide (CPC scientific); also called (NANPx6) peptide; long, major repeat peptide
T1 peptide: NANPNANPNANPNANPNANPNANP
In words: SPR (Carterra LSA, 25 C), antibody immobilised on the chip, peptide as analyte.

Test [2] has as its target T2, NVDP3NANP2 peptide (NVDPNANPNVDPNANPNVDP) (Plasmodium falciparum, acetylated at N-terminus; amidated at C-terminus).
T2 construct: Synthetic peptide; also called long, minor repeat peptide
T2 peptide: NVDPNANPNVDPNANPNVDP
Described as above.

The target of test [3] is T3, recombinant CSP (Plasmodium falciparum circumsporozoite protein, 3D7) (Plasmodium falciparum, UniProt Q7K740 19-374).
T3 construct: also called CSP (3D7)
T3 sequence (Q7K740 19-374 limits assumed): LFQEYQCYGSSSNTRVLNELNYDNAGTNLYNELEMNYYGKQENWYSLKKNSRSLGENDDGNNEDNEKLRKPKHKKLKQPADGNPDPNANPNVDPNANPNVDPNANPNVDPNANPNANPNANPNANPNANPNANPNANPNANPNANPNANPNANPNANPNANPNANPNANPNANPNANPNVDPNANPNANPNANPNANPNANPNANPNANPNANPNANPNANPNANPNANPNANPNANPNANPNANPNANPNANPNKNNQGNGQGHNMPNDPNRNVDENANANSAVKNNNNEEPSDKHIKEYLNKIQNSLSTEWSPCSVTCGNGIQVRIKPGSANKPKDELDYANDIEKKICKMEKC
In words: SPR (Carterra LSA), IgG captured, CSP analyte.

B1: AB-007163 (antibody, V domains shown)
VH: QVHLLESGGTVVQPGGSLRLSCEASGFIFSDYGMHWVRQVPGKGLEWVAVIWFDGSQKYYGDSVKGRFTVSRDNSKNTLYLQMNTLRADDTGIYYCATDIRGAYKVTDGGFDQWGHGTLVTVSP
VL: QSVLTQPPSISGAPGQRVTISCTGAGSNIGAGYEVHWYQQLPGTAPKLLMFADNNRPSGVPDRFSGSKSGTSASLAITGLQAEDEADYYCQSYDISLKNFVFGTGTTVTVL
B1: the binding result in test [1] and in test [2] was “binds” in each case.

B2: AB-001558 (antibody, V domains shown)
VH: QVQLVESGGGVVQPGRSLRLSCAASGFTFSSYGMHWVRQAPGKGLEWVAVIWYDGNNKYYVDSVKGRFTISRDNSKNTLYLQMNSLRAEDTAVYYCARDHDADYVEKWGAFDLWGQGTMVTVSS
VL: EIVMTQSPATLSVSPGERATLSCRASQSVSSNLAWYQQKPGQAPRLLIYGASARATGIPARFSGSGSGTEFTLTISSLQSEDFAVYYCQQYNNGRTFGQGTKVEIT
In the case of B2, the Kd in test [3] was 1.05 nM.
